US20070258972A1, “Combination of a Histone Deacetylase Inhibitor with a Death Receptor Ligand” (priority 2003, published 2007)

Test system: Primary AML cells
Assay: Apoptosis of primary AML cells by annexin V staining and flow cytometry
Type: cell-based, human
Settings: for % of Apoptosis: LAQ824 100 nM and/or Apo-2L/TRAIL 100 ng/mL, 24 hours
Excerpt: Jurkat T cell leukemia and SKW6.4 B lymphoblast cells are obtained from American Tissue Culture Collection (Manassas, Va.). HL-60/Bcl-2 cells with ectopic over-expression of Bcl-2 and the control HL-60/Neo cells are created and maintained in culture as previously described. Primary leukemia blasts from six patients with AML in relapse are harvested, as previously described, from the peripheral blood or bone marrow after informed consent, as a part of a protocol study sanctioned by the local Institutional Review Board. The purity of leukemia blasts in the samples prior to culture in LAQ824 and/or Apo-2L/TRAIL was at least 80% or more, as determined by morphologic evaluation after Wright staining.
After drug treatments, cells are resuspended in 100 μL of the staining solution containing annexin-V fluorescein and propidium iodide in a HEPES buffer (Annexin-V-FLUOS Staining Kit, Boehringer-Mannheim, and Indianapolis, Ind.). Following incubation at room temperature for 15 minutes, annexin V positive cells are estimated by flow cytometry, as previously described.

B1: Apo-2L/TRAIL: recombinant human trimeric form of Apo-2L/TRAIL from Genentech, Inc., produced in E. coli (protein, UniProt P50591 1-281, looked up)
Tumor necrosis factor ligand …: MAMMEVQGGPSLGQTCVLIVIFTVLLQSLCVAVTYVYFTNELKQMQDKYSKSGIACFLKEDDSYWDPNDEESMNSPCWQVKWQLRQLVRKMILRTSEETISTVQEKQQNISPLVRERGPQRVAAHITGTRGRSNTLSSPNSKNEKALGRKINSWESSRSGHSFLSNLHLRNGELVIHEKGFYYIYSQTYFRFQEEIKENTKNDKQMVQYIYKYTSYPDPILLMKSARNSCWSKDAEYGLYSIYQGGIFELKENDRIFVSVTNEHLIDMDHEASFFGAFLVG
modifications: trimeric
notes: recombinant human trimeric form of Apo-2L/TRAIL from Genentech, Inc., produced in E. coli
- % of Apoptosis (Patient 1 primary AML cells, control 7.0): 7.6%
- % of Apoptosis (Patient 2 primary AML cells, control 12.0): 14.0%
- % of Apoptosis (Patient 3 primary AML cells, control 8.0): 8.6%
- % of Apoptosis (Patient 4 primary AML cells, control 10.0): 11.0%
- % of Apoptosis (Patient 5 primary AML cells, control 6.0): 6.8%
- % of Apoptosis (Patient 6 primary AML cells, control 7.0): 8.1%
- apoptosis of primary AML blasts (in words) (six samples, relapsed AML, Apo-2L/TRAIL 100 ng/mL, LAQ824 100 nM): resistant
